Data on eleven molecules can be found in US20150105316A1 (TREVENA, published 2015).

Where no end group is shown, it is not given here. [ ]: non-standard residue; d: D form. Tle = CC(C)(C)[C@H](N)C(=O)O; Ac6c = NC1(C(=O)O)CCCCC1; cyHex = not defined here; cyPen = not defined here; Ac5c = NC1(C(=O)O)CCCC1; Sar = CNCC(=O)O

Test in all cases: cell-based or functional assay
Experiment [1] deals with T1, rat angiotensin 2 type 1 receptor (rat, UniProt P25095 1-359).
T1 sequence (looked up): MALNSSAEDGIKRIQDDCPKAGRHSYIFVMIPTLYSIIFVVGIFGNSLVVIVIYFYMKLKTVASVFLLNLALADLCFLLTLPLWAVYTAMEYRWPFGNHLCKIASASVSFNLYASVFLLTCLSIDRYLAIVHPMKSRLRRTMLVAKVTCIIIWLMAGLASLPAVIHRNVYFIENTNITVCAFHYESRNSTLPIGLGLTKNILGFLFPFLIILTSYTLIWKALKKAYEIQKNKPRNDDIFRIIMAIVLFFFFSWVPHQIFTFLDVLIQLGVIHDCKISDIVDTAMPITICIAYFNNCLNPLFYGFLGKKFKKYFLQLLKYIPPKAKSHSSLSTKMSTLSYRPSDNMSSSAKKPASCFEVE

In experiment [2] the target is T2, human angiotensin 2 type 1 receptor (human, UniProt P30556 1-359).
T2 sequence (looked up): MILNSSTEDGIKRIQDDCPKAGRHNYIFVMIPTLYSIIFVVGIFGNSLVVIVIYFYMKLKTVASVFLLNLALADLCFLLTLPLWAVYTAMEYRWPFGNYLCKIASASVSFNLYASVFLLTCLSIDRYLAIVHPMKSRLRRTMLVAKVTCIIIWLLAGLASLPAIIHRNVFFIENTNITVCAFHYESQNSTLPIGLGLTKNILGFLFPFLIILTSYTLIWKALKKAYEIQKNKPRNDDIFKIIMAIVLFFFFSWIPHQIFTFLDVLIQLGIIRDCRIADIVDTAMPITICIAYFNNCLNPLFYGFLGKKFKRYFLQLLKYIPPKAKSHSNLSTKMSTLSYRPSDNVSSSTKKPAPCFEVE

Experiment [3] has as its target T1, rat angiotensin 2 type 1 receptor. This is another data set of the same source.
Experiment [4] addresses T2, human angiotensin 2 type 1 receptor. This is another data set of the same source.

For [Sar]RVY[Ac5c]HPM [SEQ ID NO: 23 (Sar-Arg-Val-Tyr-cyPen-His-Pro-Met)], in experiment [1], the “beta-arrestin2 assay EC50” value was greater than 3.2 nM, the “beta-arrestin2 assay Span” value is less than 105 and the “beta-arrestin2 assay pEC50” value was less than 8.5. In experiment [2], the “beta-arrestin2 assay EC50” value was greater than 3.2 nM, the “beta-arrestin2 assay Span” value was less than 101 and the “beta-arrestin2 assay pEC50” value is less than 8.5. Besides, in experiment [3], the “IP1 G-protein assay EC50” value was greater than 0.6 nM, the “IP1 G-protein assay Span” value was less than 104 and the “IP1 G-protein assay pEC50” value was less than 9.2. Also, in experiment [4], the “IP1 G-protein assay EC50” value is greater than 1.3 nM, the “IP1 G-protein assay Span” value is less than 103 and the “IP1 G-protein assay pEC50” value was less than 9.2.

Consider [Sar]RVY[Ac5c]HPT [SEQ ID NO: 21 (Sar-Arg-Val-Tyr-cyPen-His-Pro-Thr)], for which, in experiment [1], the “beta-arrestin2 assay EC50” value is greater than 3.2 nM, the “beta-arrestin2 assay Span” value is less than 105 and the “beta-arrestin2 assay pEC50” value is less than 8.5. Also, in experiment [2], the “beta-arrestin2 assay EC50” value was greater than 3.2 nM, the “beta-arrestin2 assay Span” value is less than 101 and the “beta-arrestin2 assay pEC50” value is less than 8.5. Also, in experiment [3], the “IP1 G-protein assay EC50” value is greater than 0.6 nM, the “IP1 G-protein assay Span” value is less than 104 and the “IP1 G-protein assay pEC50” value is less than 9.2. For the same molecule, in experiment [4], the “IP1 G-protein assay EC50” value is greater than 1.3 nM and the “IP1 G-protein assay pEC50” value is greater than 9.2.

As to [Sar]RVY[Ac5c]HPF [SEQ ID NO: 24 (Sar-Arg-Val-Tyr-cyPen-His-Pro-Phe)], in experiment [1], the “beta-arrestin2 assay EC50” value is greater than 3.2 nM, the “beta-arrestin2 assay Span” value is less than 105 and the “beta-arrestin2 assay pEC50” value is less than 8.5. Further, in experiment [2], the “beta-arrestin2 assay EC50” value is greater than 3.2 nM, the “beta-arrestin2 assay Span” value is greater than 101 and the “beta-arrestin2 assay pEC50” value is less than 8.5. In experiment [3], the “IP1 G-protein assay EC50” value is greater than 0.6 nM, the “IP1 G-protein assay Span” value is less than 104 and the “IP1 G-protein assay pEC50” value was less than 9.2. Further, in experiment [4], the “IP1 G-protein assay EC50” value was less than 1.3 nM, the “IP1 G-protein assay Span” value is greater than 103 and the “IP1 G-protein assay pEC50” value is less than 9.2.

Consider [Sar]RVY[Ac6c]HPY [SEQ ID NO: 55 (Sar-Arg-Val-Tyr-cyHex-His-Pro-Tyr)], for which, in experiment [1], the “beta-arrestin2 assay EC50” value is greater than 3.2 nM, the “beta-arrestin2 assay Span” value was less than 105 and the “beta-arrestin2 assay pEC50” value is less than 8.5. In addition, in experiment [2], the “beta-arrestin2 assay EC50” value was greater than 3.2 nM, the “beta-arrestin2 assay Span” value was less than 101 and the “beta-arrestin2 assay pEC50” value was less than 8.5. In experiment [3], the “IP1 G-protein assay EC50” value is greater than 0.6 nM, the “IP1 G-protein assay Span” value is less than 104 and the “IP1 G-protein assay pEC50” value was less than 9.2. In experiment [4], the “IP1 G-protein assay EC50” value was greater than 1.3 nM, the “IP1 G-protein assay Span” value is less than 103 and the “IP1 G-protein assay pEC50” value is less than 9.2.

In the case of [Sar]RVY[cyPen]HPA (reading uncertain; also: printed as Sar-Arg-Val-Tyr-cyPen-His-Pro-Ala) [SEQ ID NO: 3 (Sar-Arg-Val-Tyr-cyPen-His-Pro-Ala)], the “beta-arrestin2 assay Span” value in experiment [1] is less than 105; in experiment [2], less than 101. Further, the “IP1 G-protein assay EC50” value in experiment [3] is greater than 0.6 nM; in experiment [4] it was greater than 10000 nM. The “IP1 G-protein assay pEC50” value in experiment [3] and in experiment [4] was greater than 9.2 each time.

On to [Sar]RVY[Ac6c]HP[Tle] [SEQ ID NO: 56 (Sar-Arg-Val-Tyr-cyHex-His-Pro-AA02)], for which, in experiment [1], the “beta-arrestin2 assay EC50” value was greater than 3.2 nM, the “beta-arrestin2 assay Span” value is less than 105 and the “beta-arrestin2 assay pEC50” value was less than 8.5. In experiment [2], the “beta-arrestin2 assay EC50” value is greater than 3.2 nM, the “beta-arrestin2 assay Span” value is less than 101 and the “beta-arrestin2 assay pEC50” value is less than 8.5. In experiment [3], the “IP1 G-protein assay EC50” value is greater than 0.6 nM, the “IP1 G-protein assay Span” value was less than 104 and the “IP1 G-protein assay pEC50” value was less than 9.2. In addition, in experiment [4], the “IP1 G-protein assay EC50” value is greater than 1.3 nM, the “IP1 G-protein assay Span” value is less than 103 and the “IP1 G-protein assay pEC50” value was less than 9.2.

Consider [Sar]RVY[Ac6c]HPQ [SEQ ID NO: 38 (Sar-Arg-Val-Tyr-cyHex-His-Pro-Gln)], for which, in experiment [1], the “beta-arrestin2 assay EC50” value is greater than 3.2 nM, the “beta-arrestin2 assay Span” value was less than 105 and the “beta-arrestin2 assay pEC50” value is less than 8.5. In addition, in experiment [2], the “beta-arrestin2 assay EC50” value was greater than 3.2 nM, the “beta-arrestin2 assay Span” value is less than 101 and the “beta-arrestin2 assay pEC50” value is less than 8.5. In addition, in experiment [3], the “IP1 G-protein assay EC50” value was greater than 0.6 nM, the “IP1 G-protein assay Span” value is less than 104 and the “IP1 G-protein assay pEC50” value was less than 9.2. In experiment [4], the “IP1 G-protein assay EC50” value is greater than 1.3 nM, the “IP1 G-protein assay Span” value is less than 103 and the “IP1 G-protein assay pEC50” value was less than 9.2.

Turning to [Sar]RVY[cyHex]HPA (reading uncertain; also: printed as Sar-Arg-Val-Tyr-cyHex-His-Pro-Ala) [SEQ ID NO: 2 (Sar-Arg-Val-Tyr-cyHex-His-Pro-Ala)], the entries for the “beta-arrestin2 assay Span” value in experiment [1] and in experiment [2] were less than 105 and less than 101, respectively. Besides, in experiment [3], the “IP1 G-protein assay EC50” value was greater than 0.6 nM. Besides, the figures for the “IP1 G-protein assay pEC50” value in experiment [3] and in experiment [4] were greater than 9.2 and less than 9.2, respectively. For the same molecule, in experiment [4], the “IP1 G-protein assay Span” value was less than 103.

[Sar]RVY[Ac5c]HPS [SEQ ID NO: 22 (Sar-Arg-Val-Tyr-cyPen-His-Pro-Ser)]: in experiment [1], the “beta-arrestin2 assay EC50” value was greater than 3.2 nM, the “beta-arrestin2 assay Span” value is less than 105 and the “beta-arrestin2 assay pEC50” value was less than 8.5. For the same molecule, in experiment [2], the “beta-arrestin2 assay EC50” value is greater than 3.2 nM, the “beta-arrestin2 assay Span” value was less than 101 and the “beta-arrestin2 assay pEC50” value is less than 8.5. In experiment [3], the “IP1 G-protein assay EC50” value was greater than 0.6 nM, the “IP1 G-protein assay Span” value is less than 104 and the “IP1 G-protein assay pEC50” value is less than 9.2. Moreover, in experiment [4], the “IP1 G-protein assay EC50” value is greater than 1.3 nM and the “IP1 G-protein assay pEC50” value was greater than 9.2.

Consider [Sar]RVY[Ac6c]HPP [SEQ ID NO: 39 (Sar-Arg-Val-Tyr-cyHex-His-Pro-Pro)], for which, in experiment [1], the “beta-arrestin2 assay EC50” value is greater than 3.2 nM, the “beta-arrestin2 assay Span” value was less than 105 and the “beta-arrestin2 assay pEC50” value was less than 8.5. Also, in experiment [2], the “beta-arrestin2 assay EC50” value is greater than 3.2 nM, the “beta-arrestin2 assay Span” value was less than 101 and the “beta-arrestin2 assay pEC50” value was less than 8.5. In experiment [3], the “IP1 G-protein assay EC50” value is greater than 0.6 nM, the “IP1 G-protein assay Span” value was less than 104 and the “IP1 G-protein assay pEC50” value is less than 9.2. In experiment [4], the “IP1 G-protein assay EC50” value is greater than 1.3 nM, the “IP1 G-protein assay Span” value is less than 103 and the “IP1 G-protein assay pEC50” value was less than 9.2.

In the case of [Sar]RVY[Ac6c]HPW [SEQ ID NO: 54 (Sar-Arg-Val-Tyr-cyHex-His-Pro-Trp)], in experiment [1], the “beta-arrestin2 assay EC50” value was greater than 3.2 nM, the “beta-arrestin2 assay Span” value was less than 105 and the “beta-arrestin2 assay pEC50” value is less than 8.5. In experiment [2], the “beta-arrestin2 assay EC50” value was greater than 3.2 nM, the “beta-arrestin2 assay Span” value is less than 101 and the “beta-arrestin2 assay pEC50” value was less than 8.5. Also, in experiment [3], the “IP1 G-protein assay EC50” value was greater than 0.6 nM, the “IP1 G-protein assay Span” value is less than 104 and the “IP1 G-protein assay pEC50” value was less than 9.2. Besides, in experiment [4], the “IP1 G-protein assay EC50” value was greater than 1.3 nM, the “IP1 G-protein assay Span” value is less than 103 and the “IP1 G-protein assay pEC50” value was less than 9.2.
